Our source for the % Inhibition of Specific Binding and Percentage inhibition (%) values is US20230212549A1, “COMPOUNDS COMPRISING A […] LIGAND AND USE THEREOF” (priority 2021, published 2023).

For assay [1], the target named is 5-HT2B (h) (human), P41595. The experiment in a line: radioligand displacement (agonist radioligand), 10 µM. Particulars: remark: other sources report otherwise.
A further assay addresses T1, GR (h) (human), P04150.
T1 chain: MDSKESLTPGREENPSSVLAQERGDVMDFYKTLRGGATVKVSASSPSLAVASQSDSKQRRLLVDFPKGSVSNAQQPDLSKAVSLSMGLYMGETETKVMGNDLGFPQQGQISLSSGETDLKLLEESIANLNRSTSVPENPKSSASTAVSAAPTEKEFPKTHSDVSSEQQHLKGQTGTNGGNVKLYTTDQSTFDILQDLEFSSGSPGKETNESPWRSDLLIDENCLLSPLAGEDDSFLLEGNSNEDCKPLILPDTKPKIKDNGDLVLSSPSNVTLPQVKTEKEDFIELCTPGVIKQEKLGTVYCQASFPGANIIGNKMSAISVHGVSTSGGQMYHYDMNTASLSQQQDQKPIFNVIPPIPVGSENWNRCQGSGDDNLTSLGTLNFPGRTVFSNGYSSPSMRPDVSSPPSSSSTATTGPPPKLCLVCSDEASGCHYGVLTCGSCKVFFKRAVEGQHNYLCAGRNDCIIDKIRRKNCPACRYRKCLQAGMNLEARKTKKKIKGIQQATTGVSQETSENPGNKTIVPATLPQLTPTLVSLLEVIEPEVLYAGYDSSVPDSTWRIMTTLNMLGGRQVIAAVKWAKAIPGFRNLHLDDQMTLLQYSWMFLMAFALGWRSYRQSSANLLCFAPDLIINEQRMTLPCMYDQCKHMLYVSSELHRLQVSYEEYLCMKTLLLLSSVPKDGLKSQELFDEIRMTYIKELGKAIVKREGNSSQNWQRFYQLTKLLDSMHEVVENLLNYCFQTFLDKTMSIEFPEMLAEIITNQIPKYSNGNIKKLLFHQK
The description is as above. Particulars: remark: other sources report otherwise.

The target of a further assay is T2, A2A (h) (human), P29274.
T2 chain: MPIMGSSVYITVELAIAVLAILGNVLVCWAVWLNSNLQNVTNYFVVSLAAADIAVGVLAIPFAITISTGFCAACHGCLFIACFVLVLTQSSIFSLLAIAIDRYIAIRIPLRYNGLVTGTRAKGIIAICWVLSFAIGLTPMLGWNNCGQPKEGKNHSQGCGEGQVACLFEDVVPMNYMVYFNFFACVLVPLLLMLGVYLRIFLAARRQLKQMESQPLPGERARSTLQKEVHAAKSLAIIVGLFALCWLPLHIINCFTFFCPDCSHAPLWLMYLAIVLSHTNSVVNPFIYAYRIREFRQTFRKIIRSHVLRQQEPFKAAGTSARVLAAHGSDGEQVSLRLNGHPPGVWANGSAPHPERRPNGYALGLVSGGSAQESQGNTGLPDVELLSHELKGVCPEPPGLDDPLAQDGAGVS
Described as above. Particulars: remark: other sources report otherwise.

A further assay deals with T3, ETA (h) (human), P25101.
T3 chain: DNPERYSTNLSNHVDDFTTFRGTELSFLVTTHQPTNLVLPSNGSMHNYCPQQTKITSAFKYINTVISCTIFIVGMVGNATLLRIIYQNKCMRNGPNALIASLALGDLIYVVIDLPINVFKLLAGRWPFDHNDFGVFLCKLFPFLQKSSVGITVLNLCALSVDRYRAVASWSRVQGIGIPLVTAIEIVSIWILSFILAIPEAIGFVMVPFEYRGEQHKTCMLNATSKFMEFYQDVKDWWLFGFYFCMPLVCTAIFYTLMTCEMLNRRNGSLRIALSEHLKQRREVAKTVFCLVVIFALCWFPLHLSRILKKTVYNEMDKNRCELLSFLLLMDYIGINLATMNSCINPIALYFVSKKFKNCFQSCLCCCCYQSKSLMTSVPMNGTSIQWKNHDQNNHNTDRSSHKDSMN
Described as above. Particulars: remark: other sources report otherwise.

The next assay concerns the target T4, AR (h) (human), P10275.
T4 chain: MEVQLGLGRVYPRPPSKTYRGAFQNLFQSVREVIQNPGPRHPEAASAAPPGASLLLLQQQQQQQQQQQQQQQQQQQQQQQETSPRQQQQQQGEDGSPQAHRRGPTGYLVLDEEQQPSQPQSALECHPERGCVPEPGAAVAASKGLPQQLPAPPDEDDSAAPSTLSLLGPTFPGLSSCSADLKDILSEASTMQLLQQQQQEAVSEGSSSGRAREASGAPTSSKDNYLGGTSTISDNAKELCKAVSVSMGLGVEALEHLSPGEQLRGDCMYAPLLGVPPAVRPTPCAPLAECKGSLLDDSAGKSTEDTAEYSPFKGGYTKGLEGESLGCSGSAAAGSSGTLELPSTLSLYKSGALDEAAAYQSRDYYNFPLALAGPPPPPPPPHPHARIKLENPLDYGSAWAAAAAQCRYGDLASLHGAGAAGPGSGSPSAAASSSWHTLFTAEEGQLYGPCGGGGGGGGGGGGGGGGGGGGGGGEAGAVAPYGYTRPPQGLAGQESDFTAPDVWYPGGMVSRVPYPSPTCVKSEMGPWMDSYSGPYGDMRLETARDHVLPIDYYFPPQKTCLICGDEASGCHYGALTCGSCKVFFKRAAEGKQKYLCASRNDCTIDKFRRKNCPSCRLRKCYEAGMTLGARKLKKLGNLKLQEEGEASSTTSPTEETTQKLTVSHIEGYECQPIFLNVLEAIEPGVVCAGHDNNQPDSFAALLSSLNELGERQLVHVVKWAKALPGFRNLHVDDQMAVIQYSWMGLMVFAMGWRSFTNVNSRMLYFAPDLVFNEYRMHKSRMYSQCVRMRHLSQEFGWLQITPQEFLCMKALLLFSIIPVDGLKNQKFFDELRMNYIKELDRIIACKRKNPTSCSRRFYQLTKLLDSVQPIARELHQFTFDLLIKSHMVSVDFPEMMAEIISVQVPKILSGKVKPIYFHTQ
The description is as above. Particulars: remark: other sources report otherwise.

The target of another assay is Cathepsin V, O60911. The experiment in a line: cell-based or functional assay.

Bridge positions count the residues as written; N and C are the ends.

Sequence of Cathepsin V, O60911 (O60911 114-334 limits assumed): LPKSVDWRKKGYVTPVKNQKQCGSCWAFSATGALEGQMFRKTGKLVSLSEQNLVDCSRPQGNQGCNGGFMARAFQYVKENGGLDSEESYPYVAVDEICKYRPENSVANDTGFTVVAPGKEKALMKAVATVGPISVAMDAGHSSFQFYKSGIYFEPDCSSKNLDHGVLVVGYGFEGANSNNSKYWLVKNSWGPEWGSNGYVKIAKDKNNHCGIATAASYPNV
Sequence of 5-HT2B (h) (human), P41595 (P41595 whole entry): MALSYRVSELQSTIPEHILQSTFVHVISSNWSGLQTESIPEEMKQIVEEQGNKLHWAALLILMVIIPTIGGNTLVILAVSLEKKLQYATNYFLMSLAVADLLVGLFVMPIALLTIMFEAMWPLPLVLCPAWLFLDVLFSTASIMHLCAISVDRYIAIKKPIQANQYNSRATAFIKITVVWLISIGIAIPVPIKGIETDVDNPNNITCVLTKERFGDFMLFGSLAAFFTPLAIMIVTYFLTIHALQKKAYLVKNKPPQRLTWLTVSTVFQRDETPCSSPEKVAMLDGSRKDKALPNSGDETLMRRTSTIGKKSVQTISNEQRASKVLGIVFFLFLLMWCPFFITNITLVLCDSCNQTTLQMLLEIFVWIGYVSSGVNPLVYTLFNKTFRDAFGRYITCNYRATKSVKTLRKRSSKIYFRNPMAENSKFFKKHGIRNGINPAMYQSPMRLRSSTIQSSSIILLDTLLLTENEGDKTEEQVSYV

B1: Hex-[Cys(tMeBn(DOTA-PP))-Pro-Pro-Thr-Gln-Phe-Cys]-Asp-NH2 (peptide)
peptide: Hex-CPPTQFCD-NH2
modifications: bridge 1-7; not fully specified (bridges); printed as Hex-[Cys(tMeBn(DOTA-PP))-Pro-Pro-Thr-Gln-Phe-Cys]-Asp-NH2
B1: the % Inhibition of Specific Binding in assay [1] is 2%; with GR (h) (human), P04150 it was -2%; with A2A (h) (human), P29274, -4%; in the assay with ETA (h) (human), P25101 it was -18%; with AR (h) (human), P10275, 3%. Besides, the Percentage inhibition (%) at 1 µM with Cathepsin V, O60911 stood at 1%. Also, the Percentage inhibition (%) at 10 µM in the assay with Cathepsin V, O60911 was -18%.

B2: Hex-[Cys(tMeBn(DOTA-AET))-Pro-Pro-Thr-Gln-Phe-Cys]-OH (peptide)
peptide: Hex-CPPTQFC-OH
modifications: bridge 1-7; not fully specified (bridges); printed as Hex-[Cys(tMeBn(DOTA-AET))-Pro-Pro-Thr-Gln-Phe-Cys]-OH
Turning to B2, the % Inhibition of Specific Binding in assay [1] was 3%; in the assay with GR (h) (human), P04150, 0%; with A2A (h) (human), P29274, -16%; with ETA (h) (human), P25101 it was 6%; in the assay with AR (h) (human), P10275, -5%. For the same molecule, the Percentage inhibition (%) at 1 µM with Cathepsin V, O60911 was -1%. In addition, in the assay with Cathepsin V, O60911, the Percentage inhibition (%) at 10 µM is -1%.
